Results taken from patent US20030134310A1.

How the values were obtained:
[1] = target: control mRNA-protein fusion molecule containing an optimized v-abl phosphorylation site (…), phosphorylated by v-abl; experiment: immunoprecipitation of the mRNA-peptide fusion with 4G10 after the v-abl kinase reaction
[2] = target: TC26 fragment of Shg (clone obtained in round five of the selection)
[3] = target: control peptides (r-series) containing the same amino acids as the test peptides, but in a scrambled order

Molecule	percent of fusion molecules immunoprecipitated [1]	phosphorylation in vitro (full-length Shg protein)	phosphorylation of mutagenized TC26 peptides with [γ-32P]ATP [2]	v-abl kinase activity on 5 µM substrate EAIYAAPFAKKK [3]
4G10 anti-phosphotyrosine antibody (Upstate Biotechnology)	3%			
recombinant v-abl tyrosine kinase (New England Biolabs) (protein) YITPVNSLEKHSWYHGPVSRNAAEYLLSSGINGSFLVRESESSPGQRSISLRYEGRVYHYRINTASDGKLYVSSESRFNTLAELVHHHSTVADGLITTLHYPAPKRNKPTIYGVSPNYDKWEMERTDITMKHKLGGGQYGEVYEGVWKKYSLTVAVKTLKEDTMEVEEFLKEAAVMKEIKHPNLVQLLGVCTREPPFYIITEFMTYGNLLDYLRECNRQEVSAVVLLYMATQISSAMEYLEKKNFIHRDLAARNCLVGENHLVKVADFGLSRLMTGDTYTAHAGAKFPIKWTAPESLAYNKFSIKSDVWAFGVLLWEIATYGMSPYPGIDLSQVYELLEKDYRMERPEGCPEKVYELMRACWQWNPSDRPSFAEIHQAFETMFQESSISDEVEKELGKRG		the full-length Shg protein was phosphorylated by both v-abl and ZAP 70 in vitro	only the first tyrosine is a substrate for v-abl	did not have a significant effect on v-abl kinase activity
ZAP 70 kinase (protein) MPDPAAHLPFFYGSISRAEAEEHLKLAGMADGLFLLRQCLRSLGGYVLSLVHDVRFHHFPIERQLNGTYAIAGGKAHCGPAELCEFYSRDPDGLPCNLRKPCNRPSGLEPQPGVFDCLRDAMVRDYVRQTWKLEGEALEQAIISQAPQVEKLIATTAHERMPWYHSSLTREEAERKLYSGAQTDGKFLLRPRKEQGTYALSLIYGKTVYHYLISQDKAGKYCIPEGTKFDTLWQLVEYLKLKADGLIYCLKEACPNSSASNASGAAAPTLPAHPSTLTHPQRRIDTLNSDGYTPEPARITSPDKPRPMPMDTSVYESPYSDPEELKDKKLFLKRDNLLIADIELGCGNFGSVRQGVYRMRKKQIDVAIKVLKQGTEKADTEEMMREAQIMHQLDNPYIVRLIGVCQAEALMLVMEMAGGGPLHKFLVGKREEIPVSNVAELLHQVSMGMKYLEEKNFVHRDLAARNVLLVNRHYAKISDFGLSKALGADDSYYTARSAGKWPLKWYAPECINFRKFSSRSDVWSYGVTMWEALSYGQKPYKKMKGPEVMAFIEQGKRMECPPECPPELYALMSDCWIYKWEDRPDFLTVEQRMRACYYSLASKVEGPPGSTQKAEAACA		the full-length Shg protein was phosphorylated by both v-abl and ZAP 70 in vitro		
